Assay results: patent publication US11015206B2, “Compositions and methods comprising sequences having hydroxyphenylpyruvate dioxygenase (HPPD) activity” (PIONEER HI-BRED INTERNATIONAL, INC., priority 2014, dated 2021)
Where a chain is given by its changes, count along the chain named.

B1: P056028-B-09 (protein)
chain: MGPTPTATAAGAAVAAASAAEQAAFRLVGHRNFVRFNPRSDRFQTLAFHHVELWCADAASAAGRFSFALGVPLAARSDLSTGNSAHASLLLRSGSLSLLFTAPYAHGADAATAALPSFSAAAARRFAADHGLAVRAVALRVADAEDAFRASVAAGARPAFGPVDLGRGFRLAEVELYGDVVLRYVSYPDGAAGEPFLPGFEGVASPGAADYGLSRFDHIVGNVPELAPAAAYMAGFTGFHEFAEFTTEDVGTTESGLNSMALANNSENVLLPLNEPVHGTKRRSQIQTFLDHHGGPGVQHIALASDDVLRTLREMRARSAMGGFEFLPPPLSDYYDDVRRCAGDVLTEAQINECQELGVMVDRDDEGVLLQIFTKPVGDRPTFFLEIIQRIGCVEKDEKGQEYQKGGCGGFGKGNFGQLFKSIEDYEKSLEAKRAAAAATAQGS
modifications: Zea mays variant form created by artificial means.
B2: 9070Q366E (protein)
chain: B1 chain with D337G, V394M, R434Q
modifications: Zea mays variant form created by artificial means.
B3: P056028-A-01 (protein)
chain: B1 chain with D337G, V394M
modifications: Zea mays variant form created by artificial means.

Tested on: 4-hydroxyphenylpyruvate dioxygenase (HPPD)
Assay: Insensitivity parameter (ON × OFF) and trait fitness (ON × OFF × kcat/KM or × kcat)
Type: biochemical, Z. mays
Set-up: key to ON × OFF / Insensitivity, mesotrione, ON × OFF / Insensitivity, tembotrione, ON × OFF / Insensitivity, topramezone, ON × OFF / Insensitivity, sulcotrione, ON × OFF / Insensitivity, isoxaflutole (DKN), ON × OFF: insensitivity = ON rate ratio × OFF rate ratio (surrogate for KD)
Settings: Megatable 3; shuffled variants
Summary of the method: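 Calculated, not measured directly: ON rate ratio × OFF rate ratio gives an insensitivity parameter serving as a KD surrogate.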

| Molecule | ON × OFF | ON × OFF × kcat |
| --- | --- | --- |
| B1 | 0.121 | 4.19 |
| B2 | 0.208 | 4.18 |
| B3 | 0.173 | 6.78 |

Same assay, conditions: Table 7; tembotrione; combinatorial variants

| Molecule | ON × OFF | ON × OFF × kcat |
| --- | --- | --- |
| B1 | 0.121 | 4.19 |
| B2 | 0.208 | 4.18 |
| B3 | 0.173 | 6.78 |

Same assay, conditions: inhibitor diketonitrile form of isoxaflutole (DKN)

| Molecule | Insensitivity, isoxaflutole (DKN), ON × OFF | Insensitivity, isoxaflutole (DKN), Trait fitness |
| --- | --- | --- |
| B1 | 0.25 | 7.93 |
| B2 | 0.17 | 3.40 |
| B3 | 0.36 | 10.45 |

Same assay, conditions: inhibitor mesotrione

| Molecule | Insensitivity, mesotrione, ON × OFF | Insensitivity, mesotrione, Trait Fitness |
| --- | --- | --- |
| B1 | 0.67 | 21.2 |
| B2 | 0.72 | 14.0 |
| B3 | 0.67 | 19.6 |

Same assay, conditions: inhibitor sulcotrione

| Molecule | Insensitivity, sulcotrione, ON × OFF | Insensitivity, sulcotrione, Trait fitness |
| --- | --- | --- |
| B1 | 0.68 | 21.6 |
| B2 | 0.50 | 9.69 |
| B3 | 0.97 | 28.4 |

Same assay, conditions: inhibitor tembotrione

| Molecule | Insensitivity, tembotrione, ON × OFF | Insensitivity, tembotrione, Trait fitness |
| --- | --- | --- |
| B1 | 0.26 | 8.28 |
| B2 | 0.27 | 5.25 |
| B3 | 0.36 | 10.43 |

Same assay, conditions: inhibitor topramezone

| Molecule | Insensitivity, topramezone, ON × OFF | Insensitivity, topramezone, Trait Fitness |
| --- | --- | --- |
| B1 | 0.38 | 12.12 |
| B2 | 0.26 | 5.04 |
| B3 | 0.51 | 14.86 |

Tested on: 4-hydroxyphenylpyruvate dioxygenase (HPPD)
Assay: OFF rate ratio: release of inhibitor from pre-formed enzyme-inhibitor complex
Type: biochemical, Z. mays
Settings: Table 7; tembotrione; combinatorial variants
Summary of the method: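 HPPD (7.2 μM) pre-incubated 1 h at RT with inhibitor (8 μM), then diluted into 25 mM Hepes pH 7, 2 mM ascorbate, 10 μM FeSO4, 100 μM HPP, 50 nM HGD; A320 followed 12 min. Ratio = steady-state rate with inhibitor over initial rate of inhibitor-free enzyme.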

| Molecule | OFF rate ratio |
| --- | --- |
| B1 | 0.187 |
| B2 | 0.273 |
| B3 | 0.249 |

Same assay, conditions: inhibitor diketonitrile form of isoxaflutole (DKN)

| Molecule | Insensitivity, isoxaflutole (DKN), Rate ratio OFF |
| --- | --- |
| B1 | 0.33 |
| B2 | 0.39 |
| B3 | 0.44 |

Same assay, conditions: inhibitor mesotrione

| Molecule | Insensitivity, mesotrione, Rate ratio OFF |
| --- | --- |
| B1 | 1.00 |
| B2 | 1.00 |
| B3 | 1.00 |

Same assay, conditions: inhibitor sulcotrione

| Molecule | Insensitivity, sulcotrione, Rate ratio OFF |
| --- | --- |
| B1 | 0.88 |
| B2 | 1.13 |
| B3 | 1.22 |

Same assay, conditions: inhibitor tembotrione

| Molecule | Insensitivity, tembotrione, Rate ratio OFF |
| --- | --- |
| B1 | 0.35 |
| B2 | 0.33 |
| B3 | 0.43 |

Same assay, conditions: inhibitor topramezone

| Molecule | Insensitivity, topramezone, Rate ratio OFF |
| --- | --- |
| B1 | 0.48 |
| B2 | 0.57 |
| B3 | 0.60 |

Tested on: 4-hydroxyphenylpyruvate dioxygenase (HPPD)
Assay: HPPD activity coupled assay with HGD; substrate saturation kinetic parameters (kcat, KM)
Type: biochemical, Z. mays
Settings: substrate saturation kinetic analysis
Summary of the method: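 Coupled continuous assay: His-tagged HPPD (5 to 240 nM, E. coli-expressed, Ni-NTA-purified) with 50 nM P. aeruginosa HGD in 25 mM Hepes pH 7, 2 mM ascorbate, 10 μM FeSO4; maleylacetoacetate followed at 320 nm. KM and Vmax from Lineweaver-Burke fits over 3.33–100 μM HPP.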

| Molecule | Km | kcat |
| --- | --- | --- |
| B1 | 3 µM | 1.55 s⁻¹ |
| B2 | 1.57 µM | 0.513 s⁻¹ |
| B3 | 2.49 µM | 1.21 s⁻¹ |
